In FireProtDB:

B1: Alpha-lactalbumin, P00712 (parent)
chain: MMSFVSLLLVGILFHATQAEQLTKCEVFQKLKDLKDYGGVSLPEWVCTAFHTSGYDTQAIVQNNDSTEYGLFQINNKIWCKDDQNPHSRNICNISCDKFLDDDLTDDIVCAKKILDKVGINYWLAHKALCSEKLDQWLCEKL

Variants of: B1
Settings: Capra hircus; pH 7; 25 °C; GdnHCl; CD; sodium cacodylate 50 mM; NaCl 50 mM; reversible: yes; structure 1HFY; whole UniProt chain shown

Variant | ddG of mutation (higher = less stable) [kcal/mol] | denaturant m value [kcal/mol/M] | denaturant midpoint (higher = more stable) [M] | unfolding free energy [kcal/mol]
T48I | -4.4 | 2.6 | 3.93 | 10.1
A49T | -1.7 | 3.1 | 2.44 | 7.4
A49I | -2.4 | 2.7 | 3.01 | 8.1
A49I T52I | -0.4 | 2.1 | 2.85 | 6.1
T52I | 1.1 | 2 | 2.31 | 4.6
